Data from the supplement of paper PMC9112550, “Optimization of the antimicrobial peptide Bac7 by deep mutational scanning” (BMC Biology, 2022).

Each sequence was assayed on Escherichia coli TOP10 (assay: shrunken log2 fold change of peptide-encoding DNA abundance (4.5 h post-induction vs induction); higher = less antimicrobial activity (less host growth inhibition)). Settings: time post-induction: 4.5 h; library: site-saturation at positions 5, 18, 19, 20.
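Note: peptides expressed intracellularly from a pBAD plasmid library in pooled LB shake-flask culture, induced with 0.3% L-arabinose, DNA abundance read by NGS, three biological replicates, DESeq2 with apeglm shrinkage.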

Sequence | shrunken log2 fold change
RRIRVRPPRLPRPRPRPKKPPRP | -0.0463
RRIRLRPPRLPRPRPRPQENPRP | -0.261
RRIRIRPPRLPRPRPRPLCSPRP | -0.682
RRIRWRPPRLPRPRPRPNNEPRP | -0.0931
RRIRTRPPRLPRPRPRPVSKPRP | -0.096
RRIRTRPPRLPRPRPRPWIHPRP | -0.636
RRIRWRPPRLPRPRPRPTLNPRP | 0.139
RRIRTRPPRLPRPRPRPYAYPRP | -0.0309
RRIRGRPPRLPRPRPRPSWFPRP | 0.373
RRIRVRPPRLPRPRPRPVEAPRP | 0.0669
RRIRLRPPRLPRPRPRPAKQPRP | 0.0963
RRIRERPPRLPRPRPRPKTHPRP | -0.392
RRIRLRPPRLPRPRPRPDQKPRP | 0.0416
RRIRMRPPRLPRPRPRPEQLPRP | 1.94
RRIRPRPPRLPRPRPRPLFNPRP | -0.444
RRIRCRPPRLPRPRPRPASIPRP | -0.612
RRIRKRPPRLPRPRPRPLIGPRP | 0.28
RRIRWRPPRLPRPRPRPSEHPRP | -0.0852
RRIRMRPPRLPRPRPRPYDWPRP | -0.133
RRIRYRPPRLPRPRPRPSQHPRP | -0.683
RRIRARPPRLPRPRPRPTSIPRP | 0.109
RRIRSRPPRLPRPRPRPWQMPRP | 0.0651
RRIRMRPPRLPRPRPRPKMHPRP | 0.42
RRIRPRPPRLPRPRPRPWGIPRP | -0.0138
RRIRERPPRLPRPRPRPCDAPRP | -0.171

Sequence | shrunken log2 fold change
RRIRMRPPRLPRPRPRPKNWPRP | 0.671
RRIRHRPPRLPRPRPRPHPNPRP | -0.063
RRIRVRPPRLPRPRPRPNDHPRP | -0.302
RRIRERPPRLPRPRPRPPVSPRP | 0.0232
RRIRTRPPRLPRPRPRPGNSPRP | -0.169
RRIRFRPPRLPRPRPRPPFVPRP | -0.0145
RRIRKRPPRLPRPRPRPIPLPRP | 0.0106
RRIRLRPPRLPRPRPRPVCSPRP | -0.14
RRIRMRPPRLPRPRPRPYTRPRP | -0.013
RRIRSRPPRLPRPRPRPGGPPRP | 0.415
RRIRWRPPRLPRPRPRPGSQPRP | 0.584
RRIRKRPPRLPRPRPRPKIDPRP | 0.545
RRIRPRPPRLPRPRPRPSMLPRP | -0.186
RRIRVRPPRLPRPRPRPKFPPRP | 0.102
RRIRTRPPRLPRPRPRPMGTPRP | -0.0546
RRIRDRPPRLPRPRPRPYNMPRP | -0.0758
RRIRPRPPRLPRPRPRPTLEPRP | 0.393
RRIRCRPPRLPRPRPRPFYIPRP | -0.58
RRIRFRPPRLPRPRPRPTEIPRP | -0.413
RRIRDRPPRLPRPRPRPCMLPRP | 1.36
RRIRCRPPRLPRPRPRPEEDPRP | -0.00229
RRIRSRPPRLPRPRPRPPLDPRP | 0.289
RRIRSRPPRLPRPRPRPPSNPRP | -0.00786
RRIRRRPPRLPRPRPRPKCMPRP | -0.172
RRIRARPPRLPRPRPRPPGTPRP | 0.898

Sequence | shrunken log2 fold change
RRIRGRPPRLPRPRPRPWRIPRP | -0.15
RRIRWRPPRLPRPRPRPTDAPRP | -0.0515
RRIRLRPPRLPRPRPRPRPWPRP | 0.199
RRIRKRPPRLPRPRPRPKEQPRP | -0.0322
RRIRVRPPRLPRPRPRPHMYPRP | -0.509
RRIRARPPRLPRPRPRPCKIPRP | -0.165
RRIRMRPPRLPRPRPRPFVPPRP | -0.375
RRIRWRPPRLPRPRPRPVVCPRP | 0.301
RRIRCRPPRLPRPRPRPPWHPRP | 0.0193
RRIRVRPPRLPRPRPRPAWFPRP | 0.0841
RRIRPRPPRLPRPRPRPIDLPRP | -0.0858
RRIRFRPPRLPRPRPRPHQKPRP | -0.0745
RRIRTRPPRLPRPRPRPWVNPRP | -0.208
RRIRMRPPRLPRPRPRPALKPRP | 1.09
RRIRCRPPRLPRPRPRPRWFPRP | 0.0519
RRIRCRPPRLPRPRPRPFGSPRP | -0.078
RRIRGRPPRLPRPRPRPCVDPRP | 1.17
RRIRMRPPRLPRPRPRPAVTPRP | 0.177
RRIRLRPPRLPRPRPRPLFKPRP | -0.188
RRIRQRPPRLPRPRPRPFPGPRP | 0.115
RRIRERPPRLPRPRPRPDQYPRP | -0.0158
RRIRGRPPRLPRPRPRPHDRPRP | -0.0826
RRIRYRPPRLPRPRPRPEDPPRP | -0.0591
RRIRPRPPRLPRPRPRPISEPRP | -0.303
RRIRMRPPRLPRPRPRPMKIPRP | -0.00146

Sequence | shrunken log2 fold change
RRIRIRPPRLPRPRPRPWTGPRP | -0.0257
RRIRRRPPRLPRPRPRPYGWPRP | 0.0825
RRIRIRPPRLPRPRPRPQECPRP | -0.0195
RRIRRRPPRLPRPRPRPTYSPRP | -0.116
RRIRDRPPRLPRPRPRPPIYPRP | -0.242
RRIRERPPRLPRPRPRPLAPPRP | 0.101
RRIRSRPPRLPRPRPRPCEVPRP | -0.333
RRIRYRPPRLPRPRPRPGRWPRP | 0.475
RRIRDRPPRLPRPRPRPKYKPRP | -0.739
RRIRMRPPRLPRPRPRPQRAPRP | 0.943
RRIRKRPPRLPRPRPRPRSVPRP | 0.402
RRIRRRPPRLPRPRPRPPWWPRP | 0.862
RRIRARPPRLPRPRPRPINHPRP | -0.376
RRIRRRPPRLPRPRPRPTFDPRP | 0.425
RRIRQRPPRLPRPRPRPEVDPRP | 0.0316
RRIRMRPPRLPRPRPRPCDDPRP | 0.553
RRIRERPPRLPRPRPRPATQPRP | 0.00813
RRIRERPPRLPRPRPRPGMSPRP | 0.0438
RRIRARPPRLPRPRPRPEEDPRP | 1.77
RRIRSRPPRLPRPRPRPWEQPRP | -0.208
RRIRERPPRLPRPRPRPHVVPRP | -0.162
RRIRARPPRLPRPRPRPDWMPRP | 0.383
RRIRARPPRLPRPRPRPIDNPRP | -0.0987
RRIRTRPPRLPRPRPRPHTIPRP | -0.314
RRIRERPPRLPRPRPRPIRHPRP | -0.397

Sequence | shrunken log2 fold change
RRIRNRPPRLPRPRPRPKSDPRP | -0.168
RRIRYRPPRLPRPRPRPGCPPRP | -0.085
RRIRVRPPRLPRPRPRPVHDPRP | -0.745
RRIRFRPPRLPRPRPRPHDNPRP | -0.392
RRIRQRPPRLPRPRPRPKVCPRP | -0.193
RRIRQRPPRLPRPRPRPPIIPRP | -0.0647
RRIRNRPPRLPRPRPRPEERPRP | -0.116
RRIRRRPPRLPRPRPRPHEMPRP | 0.489
RRIRTRPPRLPRPRPRPHQHPRP | -0.415
RRIRSRPPRLPRPRPRPYMHPRP | -0.395
RRIRWRPPRLPRPRPRPHNEPRP | -0.476
RRIRNRPPRLPRPRPRPLQSPRP | -0.0505
RRIRNRPPRLPRPRPRPHVFPRP | -0.151
RRIRPRPPRLPRPRPRPDGRPRP | 0.101
RRIRGRPPRLPRPRPRPNGNPRP | 0.0103
RRIRYRPPRLPRPRPRPVNLPRP | -0.0688
RRIRWRPPRLPRPRPRPNRGPRP | 0.172
RRIRARPPRLPRPRPRPDRSPRP | -0.0282
RRIRSRPPRLPRPRPRPGHNPRP | -0.433
RRIRWRPPRLPRPRPRPSVFPRP | 0.222
RRIRTRPPRLPRPRPRPMNTPRP | -0.609
RRIRQRPPRLPRPRPRPVPEPRP | 0.203
RRIRNRPPRLPRPRPRPKTSPRP | -0.0653
RRIRQRPPRLPRPRPRPTMCPRP | -0.0814
RRIRVRPPRLPRPRPRPMIMPRP | -0.126
